In patent publication US8003345B2, “Antioxidant pharmaceutical compound, method for producing polypeptide and method of cure” (Institute of Cell Biophysics Russian Academy of Sciences, priority 2002, dated 2011):

Experiments:
[1] = system: glutamine synthetase of E.coli; details: DTT/Fe3+/O2 oxidative system, 3 mM activator, 10 min at 37° C.; FIG. 3
Method: Comparison of the protector properties of recombinant full-size Prx Vlhum with the protector properties of natural rat Prx VIrat and with the protector properties of N-terminal ΔPrx V1hum in terms of protecting glutamine synthetase of E.coli from inactivation in a model oxidative system in vitro.
For determining the activity of different types of peroxiredoxins, their ability to protect glutamine synthetase from the DTT/Fe^+3/O2 oxidative system is measured. Glutamine synthetase is isolated from cells of the E.coli DH5α strain (Streicher S. L., Tyler B., 1980) and inactivated in the presence of a Fe^3+/O2 oxidative system and a peroxiredoxin activator—in the model oxidative system generating free radicals (Kim K. et al., 1988). […] The residual activity of glutamine synthetase is assessed by adding to the sample 200 μl of a reaction mixture which comprises: ADP, 0.4 mM; glutamine, 150 mM; K—AsO4, 10 mM; NH2OH, 20 mM; MnCl2, 0.4 mM; HEPES, 100 mM, pH 7.4. […] The protector properties of peroxiredoxin for protecting glutamine synthetase of E.coli from inactivation are determined as the ratio of the remaining activity of the enzyme after the inactivation in the presence of different concentrations of peroxiredoxin to the activity of non-inactivated glutamine synthetase.

[2] = system: tracheal epithelium of rat after application of lipopolysaccharide; test: Inflammation of rat tracheal epithelium caused by lipopolysaccharide (LPS); assay type: in vivo
[3] = system: tracheal epithelium of rat after application of lipopolysaccharide; test: as above; assay type: in vivo; remark: listed apart in the source
Method: The therapeutic properties of peroxiredoxin Prx VI in treating the upper respiratory tract of rat immediately after the application of LPS were checked on a group of 4 Wistar line rats weighing 150-200 grams. The application of LPS was carried out in the following manner. The rats were anesthetized with hexenal, and 100 μl of a lipopolysaccharide solution were introduced through a catheter (the lipopolysaccharide concentration was from 10^−9 to 10^−11 mg/ml, the total number of the used animals was 20). After the application of the lipopolysaccharide, the rats were maintained for a definite period of time (1 hour, 3 hours, 6 hours, 7 hours, 9 hours), then narcotized with hexenal (300 mg/kg weight), and a sample of the tracheal epithelial tissue was isolated. For histochemical investigations the isolated sample was placed into a fixing solution containing 2% of formaldehyde and 0.5% of glutaraldehyde. The tissue was dehydrated by sequential routing through ethyl alcohol with increasing concentration (40-100%). The tissue was embedded into LR white resin. The resin was polymerized at room temperature. 0.5 em-thick sections were made on an LKB ultratome (Sweden), using glass knives. The sections were stained with a hematoxylin-eosine and analyzed under a light microscope.
For biochemical investigations we scraped the epithelium with a thin spatula, washed off the scrape with physiological solution and centrifugated at 10000 g for 15 min. The concentration of hydrogen peroxide was by the luminescence method. […] After LPS, application of a solution of a composition based on peroxiredoxin Prx VI into the trachea was carried out. Preliminarily the rats were narcotized by intraperitoneal administration of hexenal (70 mg/kg), the animals were fixed on an operating table, and under visual control with the aid of a binocular lens, through a catheter of 1 mm in diameter, peroxiredoxin solution (20 to 100 μl) was introduced into the trachea. The peroxiredoxin concentration was from 0.5 to 5.0 mg/ml. A 0.9% solution of NaCl was used as the solvent. The application of the solution of the composition was carried out once, immediately after the application of LPS. The application of pure solvent, solutions of serum albumin (10 mg/ml) and of glutathione (10 mM) were used as control.
Histological investigation of the trachea was carried out 24 hrs after the LPS application.

[4] = Distribution of labeled peroxiredoxin in the organism after intravenous injection; assay type: in vivo, rat; details: 10 mg per animal, fluorescein-labeled
Method: For detecting the distribution of exogenous peroxiredoxin Prx VI in different tissues of the organism, a recombinant Prx V1hum labeled with fluorescein isocyanate was introduced into the rat's vein in an amount of 10 mg per animal. After definite periods of time the animals were sacrificed, the tissues of different organs were isolated, and luminescent analysis of the obtained samples was carried out. […] Thus, the method of introducing peroxiredoxin Prx VI by intravenous injection makes it possible to increase its content in almost all the tissues of the organism.

[5] = system: tracheal epithelium of rat after burn with vapors of hydrochloric acid; test: Chemical burn (HCl vapors) of the upper respiratory tract of rat; assay type: in vivo
Method: The therapeutic properties of recombinant peroxiredoxin Prx V1hum in treating the upper respiratory tract of rat 24 hours after a burn were tested on a group of 4 Wistar line rats having a weight of 150-200 grams. The rats were analgized with analgin (100 mg/kg weight) and placed for 10 minutes into an exsiccator saturated with HCl vapors (the exsiccator volume was 10 liters, 20 animals were used). After the chemical burn, the rats were maintained for a definite period of time (40 min, 6 hrs, 1 day, 2 days, 14 days, 30 days), then narcotized with hexenal (300 mg/kg weight), and a sample of the tracheal epithelial tissue was isolated. For histochemical investigations the isolated sample was placed into a fixing solution containing 2% of formaldehyde and 0.5% of glutaraldehyde. The tissue was dehydrated .by sequential routing through ethyl alcohol with increasing concentration (40-100%). The tissue was embedded into LR white resin. The resin was polymerized at room temperature. 0.5 em-thick sections were made on an LKB ultratome (Sweden), using glass knives. The sections were stained with a hematoxylin-eosine and analyzed under a light microscope.
Maximum degradation of the epithelium is observed 24 hours after the burn, the ciliated cells which provide the mucus flow in the trachea being almost absent. Two weeks later a partial restoration of the ciliated cells is observed. […]

skin cuts of rats = test: Treating skin wounds (cuts) in rats; assay type: in vivo, rat; details: in 5 days; 0.5 mg/ml in 0.15 M NaCl, bandages changed once a day; against control; FIG. 10
Method: Rats were preliminarily narcotized by intraperitoneal introduction of hexenal (70 mg/kg). The animals were fixed on an operating table, and then 2-3 mm deep and 1 cm long cuts were made in the skin of both paws with the help of a razor blade. Control cuts were irrigated with physiological solution and a bactericidal plaster was applied; in the case of using peroxiredoxin, the wound was irrigated with a solution of recombinant Prx Vlhum or of its fragment ΔPrx Vlhum in 0.15 M NaCl in 0.5 mg/ml concentration, and a gauze bandage soaked with the same solutions was applied. The bandages were changed once a day.

B1: Prx VIhum: recombinant full-size human peroxiredoxin Prx VI, 224 amino acids (SEQ ID NO: 1), produced in E.coli (protein)
chain: MPGGLLLGDVAPNFEANTTVGRIRFHDFLGDSWGILFSHPRDFTPVCTTELGRAAKLAPEFAKRNVKLIALSIDSVEDHLAWSKDINAYNCEEPTEKLPFPIIDDRNRELAILLGMLDPAEKDEKGMPVTARVVFVFGPDKKLKLSILYPATTGRNFDEILRVVISLQLTAEKRVATPVDWKDGDSVMVLPTIPEEEAKKLFPKGVFTKELPSGKKYLRYTPQP
[1]
  protector properties: antioxidant characteristics in protecting glutamine synthetase from inactivation: close to the natural rat peroxiredoxin Prx VIrat
[2]; Treatment 24 hours later for 5 days and the integrity of epithelium 2 weeks later
  Integrity of tracheal epithelium (according to histological data): 80%
[2]; after 2 weeks, single application into the trachea immediately after LPS, FIG. 9
  restoration of the epithelial tissue: almost complete restoration of the epithelial tissue
[3]; 24 hrs after LPS, application immediately after the LPS, FIG. 9B
  preservation of the tracheal epithelium: Complete preservation of the epithelium
[3]; Time after the action of LPS: 1 hour
  Integrity of tracheal epithelium (according to histological data): 90%
[3]; Time after the action of LPS: 3 hours
  Integrity of tracheal epithelium (according to histological data): 80%
[3]; Time after the action of LPS: 6 hours
  Integrity of tracheal epithelium (according to histological data): 65%
[4]; 15 minutes after intravenous injection, luminescent analysis
  distribution among organs: uniformly distributes among all the organs of the rat, including the brain
[4]; after intravenous injection
  amount in bone marrow: small, compared with other tissues
[5]; 14 days after burn, application started 24 hours after burn, once a day during 5 days, FIG. 7
  regeneration of tracheal epithelium (curative effect): almost complete regeneration of the ciliary cells of the epithelium
[5]; application 1 hour after the burn, epithelium 24 hours after chemical burn, FIG. 6
  preservation of tracheal epithelial cells (protector effect): Almost complete preservation of all epithelial cells
Skin cuts of rats
  healing of the wound: almost complete healing of the wound
